{
  "source": "patent US20220289859A1",
  "about": "(GlaxoSmithKline, published 2022)",
  "binders": {"B1": {"name": "belantamab mafodotin DL2 species (antibody, human IgG1, kappa)", "heavy": "not shown", "light": "not shown", "modifications": "MMAF on LC C214 of one light chain; drug load of two MMAF per antibody; conjugation sites LC C214 and HC 224 (one embodiment)"}, "B2": {"name": "belantamab deglycosylated with PNGaseF (antibody, human IgG1, kappa)", "heavy": "not shown", "light": "not shown", "modifications": "N-linked glycans removed with PNGaseF"}, "B3": {"name": "belantamab mafodotin DL4b species (antibody, human IgG1, kappa)", "heavy": "not shown", "light": "not shown", "modifications": "drug load of four MMAF; conjugation sites as printed: LC C230, HC 233, LC C230 and HC 233"}, "B4": {"name": "belantamab mafodotin (antibody, human IgG1, kappa)", "heavy": "not shown", "light": "not shown", "modifications": "MMAF on LC C214 in part of the molecules; MMAF conjugated to interchain cysteine sulfhydryls (sites printed at paragraph 239: HC 224, C230, HC 233); heterogeneous drug load DL0 to DL8, average DAR about 4 (2.1 to 5.7 in the DAR samples of Example 4)", "notes": "Antibody-drug conjugate: belantamab conjugated to MMAF; Tested as lots, as samples of differing average DAR and as forced-degradation samples (oxidised, base, acid, thermal, photo); the sample is named in each row; also called anti-BCMA ADC; ADC"}, "B5": {"name": "belantamab mafodotin DL6 species (antibody, human IgG1, kappa)", "heavy": "not shown", "light": "not shown", "modifications": "MMAF on LC C214 of one light chain; drug load of six MMAF; conjugation sites as printed: LC C214, HC 224, LC C230, HC 233, LC C230 and HC 233"}, "B6": {"name": "belantamab mafodotin DL4a species (antibody, human IgG1, kappa)", "heavy": "not shown", "light": "not shown", "modifications": "MMAF on LC C214; drug load of four MMAF; conjugation sites LC C214, HC 224, LC C214 and HC 224"}, "B7": {"name": "belantamab mafodotin DL8 species (antibody, human IgG1, kappa)", "heavy": "not shown", "light": "not shown", "modifications": "MMAF on LC C214; drug load of eight MMAF; conjugation sites as printed: LC C214, HC 224, LC C214, HC 224, LC C230, HC 233, LC C230 and HC 233"}, "B8": {"name": "belantamab mafodotin DL0 species (antibody, human IgG1, kappa)", "heavy": "not shown", "light": "not shown", "modifications": "no drug load", "notes": "antibody without cytotoxic agent"}},
  "key": {"[1]": {"target": "Neonatal Fc Receptor (FcRn) (UniProt P55899 24-297; P61769 21-119, limits assumed)", "sequence (P55899 24-297 limits assumed, form in doubt, chain 1 of 2)": "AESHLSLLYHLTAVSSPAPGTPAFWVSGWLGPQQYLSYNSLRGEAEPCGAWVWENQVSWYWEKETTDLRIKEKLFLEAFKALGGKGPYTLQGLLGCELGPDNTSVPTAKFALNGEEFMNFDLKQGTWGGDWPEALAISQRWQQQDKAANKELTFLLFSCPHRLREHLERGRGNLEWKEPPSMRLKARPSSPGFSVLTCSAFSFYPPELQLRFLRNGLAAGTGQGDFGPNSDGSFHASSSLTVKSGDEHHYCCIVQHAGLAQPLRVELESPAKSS", "sequence (P61769 21-119 limits assumed, form in doubt, chain 2 of 2)": "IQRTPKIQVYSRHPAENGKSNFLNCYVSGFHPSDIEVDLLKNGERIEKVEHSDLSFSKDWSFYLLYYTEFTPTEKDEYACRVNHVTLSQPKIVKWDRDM", "experiment": "SPR specific binding activity, FcRn on NTA chip; ref std #162397940", "experimental": "The FcRn binding concentration of the sample was determined by interpolation of the binding response on a calibration curve. Specific binding activity (%) was calculated by dividing the FcRn binding concentration by the total protein concentration."}, "[2]": {"target": "T1, BCMA (UniProt Q02223 1-54, limits assumed)", "T1 construct": "also called antigen; CD269", "T1 sequence (looked up)": "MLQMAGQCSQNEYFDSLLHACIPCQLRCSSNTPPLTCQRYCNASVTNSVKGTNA", "experiment": "SPR specific binding activity, protein A capture; ref std #162397940", "experimental": "(§1) The specific binding activity (%) was calculated by dividing the BCMA or FcγRIIIa binding concentration by the absorbance at 280 nm concentration."}, "[3]": {"target": "T2, FcγRIIIa (UniProt P08637 17-208, limits assumed)", "T2 construct": "also called CD16a", "T2 sequence (P08637 17-208 limits assumed)": "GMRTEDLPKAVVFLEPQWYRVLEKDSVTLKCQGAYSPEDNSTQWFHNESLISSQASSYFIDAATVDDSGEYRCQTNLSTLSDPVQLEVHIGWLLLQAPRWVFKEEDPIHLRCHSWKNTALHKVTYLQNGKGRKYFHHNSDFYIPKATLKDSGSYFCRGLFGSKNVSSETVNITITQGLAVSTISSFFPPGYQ", "experiment": "SPR specific binding activity, protein A capture; ref std #162397940", "experimental": "as §1"}, "[4]": {"target": "T1, BCMA", "experiment": "SPR as in Example 4; glyco-enriched samples of belantamab", "experimental": "as §1"}, "[5]": {"target": "T1, BCMA", "experiment": "SPR, protein A capture; H2O2-treated 1 h; ref std #182407660A", "experimental": "as §1"}},
  "data": [
    {"binder": "B1", "values": [
      {"measurement": "FcRn (%)", "setting": "[1]", "value": 109, "unit": "%"},
      {"measurement": "BCMA (%)", "setting": "[2]", "value": 99, "unit": "%"},
      {"measurement": "FcγRIIIa (%)", "setting": "[3]", "value": 104, "unit": "%"}
    ]},
    {"binder": "B2", "values": [
      {"measurement": "Specific BCMA binding activity", "setting": "[4]", "value": 95, "unit": "%"}
    ]},
    {"binder": "B3", "values": [
      {"measurement": "FcRn (%)", "setting": "[1]", "value": 99, "unit": "%"},
      {"measurement": "BCMA (%)", "setting": "[2]", "value": 90, "unit": "%"},
      {"measurement": "FcγRIIIa (%)", "setting": "[3]", "value": 91, "unit": "%"}
    ]},
    {"binder": "B4", "values": [
      {"measurement": "% Antigen Specific Binding", "setting": "[5]", "value": 99, "unit": "%"},
      {"measurement": "FcRn (%)", "setting": "[1]", "value": 101, "unit": "%"},
      {"measurement": "BCMA (%)", "setting": "[2]", "value": 96, "unit": "%"},
      {"measurement": "FcγRIIIa (%)", "setting": "[3]", "value": 97, "unit": "%"}
    ]},
    {"binder": "B5", "values": [
      {"measurement": "FcRn (%)", "setting": "[1]", "value": 97, "unit": "%"},
      {"measurement": "BCMA (%)", "setting": "[2]", "value": 89, "unit": "%"},
      {"measurement": "FcγRIIIa (%)", "setting": "[3]", "value": 84, "unit": "%"}
    ]},
    {"binder": "B6", "values": [
      {"measurement": "FcRn (%)", "setting": "[1]", "value": 102, "unit": "%"},
      {"measurement": "BCMA (%)", "setting": "[2]", "value": 95, "unit": "%"},
      {"measurement": "FcγRIIIa (%)", "setting": "[3]", "value": 103, "unit": "%"}
    ]},
    {"binder": "B7", "values": [
      {"measurement": "FcRn (%)", "setting": "[1]", "value": 93, "unit": "%"},
      {"measurement": "BCMA (%)", "setting": "[2]", "value": 86, "unit": "%"},
      {"measurement": "FcγRIIIa (%)", "setting": "[3]", "value": 82, "unit": "%"}
    ]},
    {"binder": "B8", "values": [
      {"measurement": "FcRn (%)", "setting": "[1]", "value": 108, "unit": "%"},
      {"measurement": "BCMA (%)", "setting": "[2]", "value": 103, "unit": "%"},
      {"measurement": "FcγRIIIa (%)", "setting": "[3]", "value": 110, "unit": "%"}
    ]}
  ]
}
